# Laboratory results published in the supplement of paper PMC7877785.
# ± gives the uncertainty stated by the source.
# Experiment: self-splicing fitness, log relative to wild type (ln ratio); higher = more splicing; Tetrahymena group I intron in knt gene, E. coli kanamycin selection, DiMSum; sequences stand for … in CUCUCU…GGAGGGAAAAGUUAUCAGGCAUGCACCUGGUAGCUAGUCUUUAAACCAAUAGAUUGCAUCGGUUUAAAAGGCAAGACCGUCAAAUUGCGGGAAAGGGGUCAACAGCCGUUCAGUACCAAGUCUCAGGGGAAACUUUGAGAUGGCCUUGCAAAGGGUAUGGUAAUAAGCUGACGGACAUGGUCCUAACCACGCAGCCAAGUCCUAAGUCAACAGAUCUUCUGUUGAUAUGGAUGCAGUUCACAGACUAAAUGUCGGUCGGGGAAGAUGUAUUCUUCUCAUAAGAUAUAGUCGGACCUCUCCUUAAUGGGAGCUAGCGGAUGAAGUGAUGCAACACUGGAGCCGCUGGGAACUAAUUUGUAUGCGAAAGUAUAUUGAUUAGUUUUGGAGUACUCGUGGUCG
# Procedure, shortened: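 Colonies from six replicate transformations of E. coli BL21(DE3) were pooled and amplicon-sequenced on an Illumina HiSeq 2500. The library placed an intron with all eight P1ex-region nucleotides randomised inside the knt kanamycin-resistance gene on pET-22b(+), and cells grew overnight at 37°C or 30°C on LB agar with or without 25 μg/mL kanamycin (plus 100 μg/mL carbenicillin, 50 μM IPTG, 0.2% rhamnose). Fitness is the DiMSum error-weighted combination of wild-type-normalised replicate fold changes, kanamycin versus none.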
Sequence,self-splicing fitness (ln) (30 °C),self-splicing fitness (ln) (37 °C)
UAGGAGCAAUAUUACGUCUU,-3.16 ± 0.34,-0.955 ± 0.23
GUUGAGCAAUAUUACGCCAU,–,-1.09 ± 0.35
AUUAAGCAAUAUUACGUCAC,–,-1.54 ± 0.4
GAUCAGCAAUAUUACGCCGG,-1.75 ± 0.18,-1.41 ± 0.21
UCGUAGCAAUAUUACGCUCU,-3.62 ± 0.32,-0.606 ± 0.18
CCGUAGCAAUAUUACGAUUG,-0.486 ± 0.064,-0.0224 ± 0.082
UGGCAGCAAUAUUACGCGAC,-2.66 ± 0.35,-1.64 ± 0.44
GGUUAGCAAUAUUACGCGCG,-0.271 ± 0.15,0.879 ± 0.15
UGCCAGCAAUAUUACGACAG,-1.31 ± 0.1,-0.406 ± 0.12
UCCCAGCAAUAUUACGAUGG,-3.71 ± 0.13,-2.31 ± 0.15
CAUCAGCAAUAUUACGGAAC,-2.6 ± 0.19,-2.54 ± 0.36
AAUAAGCAAUAUUACGCUCG,-0.686 ± 0.14,0.0576 ± 0.19
UAGAAGCAAUAUUACGGGAA,-1.96 ± 0.25,-2.3 ± 0.29
CCGAAGCAAUAUUACGUCGA,-2.38 ± 0.17,-1.74 ± 0.12
AUCUAGCAAUAUUACGGCCG,-1.43 ± 0.23,-0.562 ± 0.38
UGUAAGCAAUAUUACGCGUG,-0.994 ± 0.066,0.0779 ± 0.079
AUCUAGCAAUAUUACGGGGU,-3 ± 0.16,-2.98 ± 0.2
AUUCAGCAAUAUUACGAGGU,-3.61 ± 0.17,-1.72 ± 0.14
CCCGAGCAAUAUUACGUCGA,-4.11 ± 0.39,-3.16 ± 0.25
GUCAAGCAAUAUUACGUACG,-2.46 ± 0.14,-1.9 ± 0.17
ACGUAGCAAUAUUACGUCCA,-1.02 ± 0.14,-1.13 ± 0.15
GAAGAGCAAUAUUACGCUCA,–,-1.33 ± 0.48
AGAUAGCAAUAUUACGGUCG,-0.105 ± 0.12,-0.324 ± 0.15
CCAGAGCAAUAUUACGUAAG,-1.59 ± 0.097,-0.37 ± 0.12
UCAAAGCAAUAUUACGCAGU,-3.16 ± 0.19,-3.42 ± 0.31

Sequence,self-splicing fitness (ln) (30 °C),self-splicing fitness (ln) (37 °C)
GGUGAGCAAUAUUACGGCAG,-2.25 ± 0.32,–
GCCAAGCAAUAUUACGGUAG,-3.67 ± 0.22,-2.82 ± 0.18
ACGCAGCAAUAUUACGCAGC,-3.49 ± 0.18,-2.16 ± 0.25
GGGAAGCAAUAUUACGAGAU,-2.81 ± 0.25,-2.8 ± 0.38
AGCGAGCAAUAUUACGGGUA,-2.6 ± 0.21,-0.993 ± 0.18
GACUAGCAAUAUUACGUUGC,-2.56 ± 0.12,-2.5 ± 0.2
CGACAGCAAUAUUACGCGGA,-2.18 ± 0.12,-1.9 ± 0.089
CAACAGCAAUAUUACGUCAG,-0.334 ± 0.053,-0.55 ± 0.066
GUGUAGCAAUAUUACGGGGU,-3.62 ± 0.26,-2.63 ± 0.34
AUCAAGCAAUAUUACGAAAG,-3.67 ± 0.21,-2.74 ± 0.25
GGCCAGCAAUAUUACGGAGU,-0.585 ± 0.063,-0.166 ± 0.084
GGAUAGCAAUAUUACGGGUU,-2.16 ± 0.096,-1.42 ± 0.12
CCCCAGCAAUAUUACGCAUU,-4.14 ± 0.17,-2.81 ± 0.18
CGUUAGCAAUAUUACGAGCC,-2.52 ± 0.21,0.132 ± 0.17
UCUAAGCAAUAUUACGGAAU,-4.16 ± 0.46,-1.64 ± 0.33
CGCCAGCAAUAUUACGUGGU,-3.15 ± 0.18,-3.22 ± 0.26
GCACAGCAAUAUUACGACUG,-1.14 ± 0.094,-0.12 ± 0.093
CCCGAGCAAUAUUACGAAGU,-3.58 ± 0.18,-2.75 ± 0.24
UGACAGCAAUAUUACGAUAC,-3.36 ± 0.22,-1.61 ± 0.19
AAACAGCAAUAUUACGGAUU,-1.67 ± 0.068,-0.362 ± 0.079
GAACAGCAAUAUUACGAGGG,-3.29 ± 0.22,-1.87 ± 0.22
GAGUAGCAAUAUUACGAAGU,-2.93 ± 0.18,-2.1 ± 0.15
CGGGAGCAAUAUUACGGUGG,-3.1 ± 0.37,-2.43 ± 0.45
AAGAAGCAAUAUUACGGGCC,-2.42 ± 0.22,-1.52 ± 0.21
AAGUAGCAAUAUUACGUGGA,-3.83 ± 0.26,-2.14 ± 0.16

Sequence,self-splicing fitness (ln) (30 °C),self-splicing fitness (ln) (37 °C)
GAUGAGCAAUAUUACGCUGC,–,-1.25 ± 0.48
GAGGAGCAAUAUUACGACUA,-1.32 ± 0.43,-1.47 ± 0.37
CCCAAGCAAUAUUACGCGGU,-3.41 ± 0.12,-1.77 ± 0.12
UUAGAGCAAUAUUACGCACG,-0.444 ± 0.17,-0.183 ± 0.18
GGCUAGCAAUAUUACGUCGA,-1.19 ± 0.071,-0.818 ± 0.093
UCCUAGCAAUAUUACGUAUG,-4.13 ± 0.3,-2.62 ± 0.26
UGAGAGCAAUAUUACGCGUG,-2.82 ± 0.24,0.21 ± 0.21
UCUCAGCAAUAUUACGGGAG,-2.79 ± 0.2,-1.4 ± 0.16
ACCAAGCAAUAUUACGAAGC,-3.94 ± 0.23,-0.918 ± 0.15
AGGUAGCAAUAUUACGAAGA,-2.84 ± 0.03,-1.83 ± 0.038
GUAUAGCAAUAUUACGAAGG,-3.44 ± 0.36,-1.61 ± 0.29
ACUAAGCAAUAUUACGUAUG,-3.55 ± 0.16,-1.25 ± 0.14
CAUCAGCAAUAUUACGGCCG,-0.131 ± 0.093,-0.0546 ± 0.14
UACUAGCAAUAUUACGGCGU,-2.16 ± 0.11,-0.707 ± 0.12
GUGCAGCAAUAUUACGGGCA,-2.08 ± 0.15,-1.23 ± 0.15
UAUAAGCAAUAUUACGAAAG,-1.17 ± 0.13,-2.44 ± 0.21
AGUGAGCAAUAUUACGAGCG,-0.459 ± 0.1,-0.0795 ± 0.13
CACUAGCAAUAUUACGAGUC,-2.82 ± 0.21,-2.01 ± 0.19
AAAGAGCAAUAUUACGAUUU,-0.695 ± 0.14,0.468 ± 0.13
CGUUAGCAAUAUUACGUGAA,-2.48 ± 0.15,-1.45 ± 0.15
ACCCAGCAAUAUUACGUUUC,-2.36 ± 0.062,-1.35 ± 0.082
CUACAGCAAUAUUACGCGAC,-1.03 ± 0.072,-0.76 ± 0.11
GGUGAGCAAUAUUACGUCAA,-3.58 ± 0.46,-2.78 ± 0.31
CAAGAGCAAUAUUACGCGGC,-3.74 ± 0.31,-3.52 ± 0.28
CCGCAGCAAUAUUACGGCCU,-3.67 ± 0.42,-2.88 ± 0.24

Sequence,self-splicing fitness (ln) (30 °C),self-splicing fitness (ln) (37 °C)
CACCAGCAAUAUUACGGAAU,-2.97 ± 0.14,-2.18 ± 0.16
CAGUAGCAAUAUUACGAGAA,–,-3.36 ± 0.46
GAGCAGCAAUAUUACGAUAU,-2.17 ± 0.13,-1.17 ± 0.15
CACUAGCAAUAUUACGUUUC,-4.29 ± 0.3,-1.98 ± 0.29
UGACAGCAAUAUUACGCUGA,-2.69 ± 0.17,-2.08 ± 0.24
CUGAAGCAAUAUUACGUCCA,-1.93 ± 0.25,–
CAUAAGCAAUAUUACGGGGG,-2.49 ± 0.094,-2.42 ± 0.14
CCAAAGCAAUAUUACGUUAG,-1.89 ± 0.071,-0.652 ± 0.073
UCGCAGCAAUAUUACGGCCG,-0.546 ± 0.12,-0.522 ± 0.18
UACAAGCAAUAUUACGACGA,-0.323 ± 0.065,0.0319 ± 0.075
GGCGAGCAAUAUUACGUACC,-1.44 ± 0.25,–
UGGGAGCAAUAUUACGGAUG,-3.69 ± 0.39,-1.14 ± 0.26
CUCCAGCAAUAUUACGAGGC,-3.02 ± 0.3,–
GACAAGCAAUAUUACGUCAA,-2.87 ± 0.15,-1.95 ± 0.1
UUGGAGCAAUAUUACGGCUU,-1.18 ± 0.46,-2.15 ± 0.48
AAUUAGCAAUAUUACGAUAG,-3.1 ± 0.26,-1.75 ± 0.18
AGCGAGCAAUAUUACGCAAG,-3.18 ± 0.4,-2.43 ± 0.45
CGAGAGCAAUAUUACGUGAG,-1.51 ± 0.18,-1.75 ± 0.48
CGUCAGCAAUAUUACGCGAG,-4.12 ± 0.36,-0.926 ± 0.17
AUUAAGCAAUAUUACGGCCG,-0.768 ± 0.12,0.0891 ± 0.15
GACCAGCAAUAUUACGGAAG,-1.42 ± 0.08,-0.75 ± 0.088
AGAUAGCAAUAUUACGAGGA,-2.21 ± 0.21,-2.65 ± 0.48
GUCAAGCAAUAUUACGCAUC,-3.22 ± 0.13,-1.74 ± 0.18
